Results on one substance are retold here after PMC9765456.

The target of the assay is AP2-μ2 (plasmid-encoded: μ2-HA; μ2-myc in AP2 core and hemicomplex) (UniProt P84092). Briefly: anti-FLAG co-IP, Western blot. To be noted: reference: wild type; sites S31,S32. (In general: In western blotting, separated proteins are transferred to a membrane and probed.)

With “HPV-16 E7 (from UniProt P03129) S31A/S32A”, the “binding against the reference” value is on record as “weaker”.
